This test has as its target T1, endogenous MIF (macrophage migration inhibitory factor) in HeLa cell lysates (human, UniProt P14174 2-115).
T1 construct: Endogenous protein in lysate, detected by western blot with an anti-MIF antibody; also called MMIF; PAAN
As to the kind of experiment: pull-down of AIF mutants, western blot with anti-MIF antibody.

The values below come from patent publication US20220249597A1 (Johns Hopkins, published 2022).

T1 sequence (P14174 2-115 limits assumed): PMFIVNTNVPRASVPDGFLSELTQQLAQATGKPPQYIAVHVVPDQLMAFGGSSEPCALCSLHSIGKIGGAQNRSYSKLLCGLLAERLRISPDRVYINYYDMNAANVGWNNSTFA

B1: AIFm567-592 (full length AIF with aa567-592 mutated into polyalanines) (other, mouse, UniProt Q9Z0X1 1-612, looked up)
chain: MFRCGGLAGAFKQKLVPLVRTVYVQRPKQRNRLPGNLFQQWRVPLELQMARQMASSGSSGGKMDNSVLVLIVGLSTIGAGAYAYKTIKEDQKRYNERVMGLGLSPEEKQRRAIASATEGGSVPQIRAPSHVPFLLIGGGTAAFAAARSIRARDPGARVLIVSEDPELPYMRPPLSKELWFSDDPNVTKTLQFRQWNGKERSIYFQPPSFYVSAQDLPNIENGGVAVLTGKKVVHLDVRGNMVKLNDGSQITFEKCLIATGGTPRSLSAIDRAGAEVKSRTTLFRKIGDFRALEKISREVKSITVIGGGFLGSELACALGRKSQASGIEVIQLFPEKGNMGKILPQYLSNWTMEKVKREGVKVMPNAIVQSVGVSGGRLLIKLKDGRKVETDHIVTAVGLEPNVELAKTGGLEIDSDFGGFRVNAELQARSNIWVAGDAACFYDIKLGRRRVEHHDHAVVSGRLAGENMTGAAKPYWHQSMFWSDLGPDVGYEAIGLVDSSLPTVGVFAKATAQDNPKSATEQSGTGIRSESETESEASEITIPPSAPAVPQVPVEGEDYGKGVIFYAAAAAAAAAAAAAAAAAAAAAAAAAADGEQHEDLNEVAKLFNIHED
Take B1: the binding result is on record as “no binding”.

B2: AIFA567-592 (full length AIF with aa567-592 deleted) (other, mouse, UniProt Q9Z0X1 1-612, looked up)
chain: MFRCGGLAGAFKQKLVPLVRTVYVQRPKQRNRLPGNLFQQWRVPLELQMARQMASSGSSGGKMDNSVLVLIVGLSTIGAGAYAYKTIKEDQKRYNERVMGLGLSPEEKQRRAIASATEGGSVPQIRAPSHVPFLLIGGGTAAFAAARSIRARDPGARVLIVSEDPELPYMRPPLSKELWFSDDPNVTKTLQFRQWNGKERSIYFQPPSFYVSAQDLPNIENGGVAVLTGKKVVHLDVRGNMVKLNDGSQITFEKCLIATGGTPRSLSAIDRAGAEVKSRTTLFRKIGDFRALEKISREVKSITVIGGGFLGSELACALGRKSQASGIEVIQLFPEKGNMGKILPQYLSNWTMEKVKREGVKVMPNAIVQSVGVSGGRLLIKLKDGRKVETDHIVTAVGLEPNVELAKTGGLEIDSDFGGFRVNAELQARSNIWVAGDAACFYDIKLGRRRVEHHDHAVVSGRLAGENMTGAAKPYWHQSMFWSDLGPDVGYEAIGLVDSSLPTVGVFAKATAQDNPKSATEQSGTGIRSESETESEASEITIPPSAPAVPQVPVEGEDYGKGVIFYDGEQHEDLNEVAKLFNIHED
For the molecule B2, the binding result is “no binding”.
